Data as given in PMC10641520 (The Journal of Biological Chemistry, 2023).

Experiments:
AUC [1] = target: the molecule itself; assay: AUC
AUC [2] = target: the molecule itself; assay: AUC; remark: listed apart in the source

B1: Acinetobacter baumannii TIR domain protein (AbTir-TIR^wt, aa134-269) (domain or fragment, UniProt A0A009IHW8 134-269, looked up)
chain: EYDLFISHASEDKEDFVRPLAETLQQLGVNVWYDEFTLKVGDSLRQKIDSGLRNSKYGTVVLSTDFIKKDWTNYELDGLVAREMNGHKMILPIWHKITKNDVLDYSPNLADKVALNTSVNSIEEIAHQLADVILNR
Which results are given for B1?
stoichiometry N (AUC [1]): 2; Kd (AUC [2]): 1400 nM
